Laboratory results reported in patent publication US8110402B2, “Metal abstraction peptide (MAP) tag and associated methods” (University of Kansas, priority 2008, dated 2012).
Changes are numbered by the printed parent chain. Numbers in names are those of the source. Where a SMILES comes first, the peptide text is derived from it. [ ]: non-standard residue; d: D form.

Columns and labels:
[1] = UV-Vis absorption spectroscopy of Ni coordination; type: binding
Method: UV-Vis absorption spectra were used to measure the concentration of the PRL-1 protein. Briefly, the concentrations of purified PRL-1 analogs were measured at 280 nm and calculated using an extinction coefficient of 19420 M^−1 cm^−1. Because of possible metal-protein absorption interferences in the high 200 nm region, the validity of the UV-Vis quantification method was confirmed by the Bradford method. Spectra of PRL-1 analogs at concentrations of 10, 5, 2.5, and 1.25 mg/mL were collected on a Cary 100 UV-Vis spectrophotometer from 800 to 200 nm. […] The resulting spectra were resolved and peak positions were evaluated using GRAMS/AI 7.00 software. Three methods were aimed at metal displacement. In the first, PRL-1-WT (e.g., wild type) samples were reduced using 20 mM β-mercaptoethanol (BME), and imidazole was added to a concentration of 10 mM. For […] protein samples, this corresponds to […] solution excess of BME to compete with the two C-terminal cysteine thiols and a 200-fold solution excess of imidazole to compete with the single C-terminal histidine imidazole side chain. New baselines were taken and the spectra recalculated. In the second method, baselines were recalculated for buffer containing 100 μM EDTA, and the spectrum for the PRL-1-WT sample that was exchanged ten million fold in 100 μM EDTA was recorded. […]

[2] = Metal displacement from Ni-purified PRL-1 followed by UV-Vis (BME, imidazole, EDTA, guanidinium hydrochloride/heat); type: physicochemical
Method: UV-Vis absorption spectra were used to measure the concentration of the PRL-1 protein. Briefly, the concentrations of purified PRL-1 analogs were measured at 280 nm and calculated using an extinction coefficient of 19420 M^−1 cm^−1. Because of possible metal-protein absorption interferences in the high 200 nm region, the validity of the UV-Vis quantification method was confirmed by the Bradford method. Spectra of PRL-1 analogs at concentrations of 10, 5, 2.5, and 1.25 mg/mL were collected on a Cary 100 UV-Vis spectrophotometer from 800 to 200 nm. […] The resulting spectra were resolved and peak positions were evaluated using GRAMS/AI 7.00 software. Three methods were aimed at metal displacement. In the first, PRL-1-WT (e.g., wild type) samples were reduced using 20 mM β-mercaptoethanol (BME), and imidazole was added to a concentration of 10 mM. For 0.5 mM protein samples, this corresponds to 400-fold solution excess of BME to compete with the two C-terminal cysteine thiols and a 200-fold solution excess of imidazole to compete with the single C-terminal histidine imidazole side chain. New baselines were taken and the spectra recalculated. In the second method, baselines were recalculated for buffer containing 100 μM EDTA, and the spectrum for the PRL-1-WT sample that was exchanged ten million fold in 100 μM EDTA was recorded. Finally, 10 mg/mL protein samples were denatured in 5.6 M guanidinium hydrochloride and heated to 90° C., new baselines were taken, and the spectra were collected at 0, 2, 4 and 6 hrs.

[3] = ICP-MS of metal bound to purified PRL-1 variants (Ni); type: binding; details: for Ni bound (ICP-MS): PRL-1 variants analyzed in parallel, Ni-IMAC purified
Method: (§1) ICP-MS was used to characterize the bound metal. Briefly, purified protein samples were digested in concentrated nitric acid in PFA microcentrifuge tubes (Savillex, #s 7240, 7241) at 68±1° C. for 16.5±0.7 hours. Based on protein quantification prior to digestion, the sample was then diluted to 1.5 μM in 20 mM ammonium bicarbonate, pH 8.2, filtered through a 0.2 μm nylon filter, and injected into a VG Elemental VGII+XS Inductively-Coupled Plasma-Mass Spectrometer fitted with a microconcentric nebulizer. A minimum of two separately prepared samples were analyzed for each protein variant. Each sample was scanned twice and standards were run before, between, and after each sample scan. Drift was monitored during washes between scans of both sample and standard injections.
To investigate our hypothesis that the chromophore arises from protein abstraction of the metal from the charged IMAC matrix, samples were subjected to ICP-MS for semi-quantitative analysis. As extensive washing is used to remove background metals, the values obtained from this method inherently underestimate the amount of metal bound, but can be used to assess the relative affinity of different metals for the protein. Additionally, to identify an endogenous metal ligand that may have been bound to PRL-1 during expression in the cells, ICP-MS was used to look for the presence of a transition metal from the first two rows in the periodic table as well as other common biologically relevant metals. […] On average 500 μM Ni-purified protein samples were digested in nitric acid for 16 h at 70° C. were determined to contain approximately 180 μM Ni, yielding a Ni to protein stoichiometry of 1:2.7+/−0.7. Zn was also detected in the Ni-purified samples at approximately 60 μM. […] Because ICP-MS analysis is conducted in a flow of Ar and the most abundant isotope of Ar has the same mass as Ca, Ca binding cannot be determined from the primary mass signal. Nonetheless, because a much higher amount of Ca was present in the cell culture media compared to Zn and yet the ICP-MS signal corresponds largely to zinc, the protein is unlikely to bind calcium.

[4] = ICP-MS of metal bound to purified PRL-1 (Zn); type: binding
Method: as §1
To investigate our hypothesis that the chromophore arises from protein abstraction of the metal from the charged IMAC matrix, samples were subjected to ICP-MS for semi-quantitative analysis. […] On average 500 μM Ni-purified protein samples were digested in nitric acid for 16 h at 70° C. were determined to contain approximately 180 μM Ni, yielding a Ni to protein stoichiometry of 1:2.7+/−0.7. Zn was also detected in the Ni-purified samples at approximately 60 μM. […]

[5] = Solubility of metal-free protein; type: physicochemical; details: metal-free (apo) protein

NC(=O)C[C@@H](N)C(=O)N[C@H](CS)C(=O)N[C@H](CS)C(=O)O [NCC] (H-[dN]-[dC]-[dC]-OH)
absorbance spectrum after incubation with metal-charged IMAC resin ([1]; synthetic tripeptides): mimics that observed for the peptide-metal complex embedded in PRL-1

B1: PRL-1: recombinant wild-type human PRL-1 protein containing the C-terminal NCC motif (protein, UniProt Q93096 1-170, looked up)
Protein tyrosine phosphatase …: MARMNRPAPVEVTYKNMRFLITHNPTNATLNKFIEELKKYGVTTIVRVCEATYDTTLVEKEGIHVLDWPFDDGAPPSNQIVDDWLSLVKIKFREEPGCCIAVHCVAGLGRAPVLVALALIEGGMKYEDAVQFIRQKRRGAFNSKQLLYLEKYRPKMRLRFKDSNGHRNNC
loss of peaks at 318, 421 and 526 nm (Ni release) ([2]; 5.6 M guanidinium hydrochloride at 90° C.): only gradually disappear over 6 hrs | effect of 10 mM imidazole on absorption profile ([2]; Ni-purified): no effect | effect of ten million-fold exchange into 100 μM EDTA on spectrum ([2]; Ni-purified): little effect | effect of 20 mM BME on absorption profile ([2]; Ni-purified, pH 7.4): did not alter | reversibility of Ni binding ([2]; pH 7.4): irreversible | Ni bound (ICP-MS) [3]: approximately 120 μM | Ni content (ICP-MS) ([3]; on average 500 μM Ni-purified protein, nitric acid digest 16 h at 70° C.): approximately 180 μM | Zn detected (ICP-MS) ([4]; Ni-purified samples): approximately 60 μM | Zn present (ICP-MS) ([4]; purified using Zn-IMAC): 270 µM

B2: Apo PRL-1: PRL-1 protein without bound metal (protein, UniProt Q93096 1-170, looked up)
Protein tyrosine phosphatase …: B1 Protein tyrosine phosphatase …
modifications: apo form, no bound metal
solubility [5]: poorly soluble

B3: C170S: PRL-1 mutant with Cys170 replaced by Ser (protein, UniProt Q93096 1-170, looked up, variant C170S)
Protein tyrosine phosphatase …: B1 Protein tyrosine phosphatase … with C170S
Ni bound (ICP-MS) [3]: No Ni was detected

B4: PRL-1-H166A: PRL-1 mutant with His166 of the NGH motif replaced by Ala (protein, UniProt Q93096 1-170, looked up, variant H166A)
Protein tyrosine phosphatase …: B1 Protein tyrosine phosphatase … with H166A
Ni bound (ICP-MS) [3]: ~60 µM | decrease in signal by absorption spectroscopy ([1]; relative to wild-type PRL-1, Ni-purified): 20%
